Columns and labels:
[1] = substrate: CCCCC/C=C\C\C=C/C=C/C=C/[C@@H](SC[C@@H](NC(=O)CC[C@H](N)C(=O)O)C(=O)NCC(=O)O)[C@@H](O)CCCC(=O)O; assay: (§1) TP_TRANSPORTER: uptake in membrane vesicles from MRP6-expressing Sf9 cells; format: functional, cell membranes, Membrane vesicle
[2] = substrate: NC(CCC(=O)NC(CNCC(=O)O)CSCCN1C(=O)C=CC1=O)C(=O)O; assay: as §1; format: functional, cell membranes, Membrane vesicle

B1: ATP-binding cassette sub-family C member 6 (Homo sapiens) (protein)
chain: MAAPAEPCAGQGVWNQTEPEPAATSLLSLCFLRTAGVWVPPMYLWVLGPIYLLFIHHHGRGYLRMSPLFKAKMVLGFALIVLCTSSVAVALWKIQQGTPEAPEFLIHPTVWLTTMSFAVFLIHTERKKGVQSSGVLFGYWLLCFVLPATNAAQQASGAGFQSDPVRHLSTYLCLSLVVAQFVLSCLADQPPFFPEDPQQSNPCPETGAAFPSKATFWWVSGLVWRGYRRPLRPKDLWSLGRENSSEELVSRLEKEWMRNRSAARRHNKAIAFKRKGGSGMKAPETEPFLRQEGSQWRPLLKAIWQVFHSTFLLGTLSLIISDVFRFTVPKLLSLFLEFIGDPKPPAWKGYLLAVLMFLSACLQTLFEQQNMYRLKVLQMRLRSAITGLVYRKVLALSSGSRKASAVGDVVNLVSVDVQRLTESVLYLNGLWLPLVWIVVCFVYLWQLLGPSALTAIAVFLSLLPLNFFISKKRNHHQEEQMRQKDSRARLTSSILRNSKTIKFHGWEGAFLDRVLGIRGQELGALRTSGLLFSVSLVSFQVSTFLVALVVFAVHTLVAENAMNAEKAFVTLTVLNILNKAQAFLPFSIHSLVQARVSFDRLVTFLCLEEVDPGVVDSSSSGSAAGKDCITIHSATFAWSQESPPCLHRINLTVPQGCLLAVVGPVGAGKSSLLSALLGELSKVEGFVSIEGAVAYVPQEAWVQNTSVVENVCFGQELDPPWLERVLEACALQPDVDSFPEGIHTSIGEQGMNLSGGQKQRLSLARAVYRKAAVYLLDDPLAALDAHVGQHVFNQVIGPGGLLQGTTRILVTHALHILPQADWIIVLANGAIAEMGSYQELLQRKGALMCLLDQARQPGDRGEGETEPGTSTKDPRGTSAGRRPELRRERSIKSVPEKDRTTSEAQTEVPLDDPDRAGWPAGKDSIQYGRVKATVHLAYLRAVGTPLCLYALFLFLCQQVASFCRGYWLSLWADDPAVGGQQTQAALRGGIFGLLGCLQAIGLFASMAAVLLGGARASRLLFQRLLWDVVRSPISFFERTPIGHLLNRFSKETDTVDVDIPDKLRSLLMYAFGLLEVSLVVAVATPLATVAILPLFLLYAGFQSLYVVSSCQLRRLESASYSSVCSHMAETFQGSTVVRAFRTQAPFVAQNNARVDESQRISFPRLVADRWLAANVELLGNGLVFAAATCAVLSKAHLSAGLVGFSVSAALQVTQTLQWVVRNWTDLENSIVSVERMQDYAWTPKEAPWRLPTCAAQPPWPQGGQIEFRDFGLRYRPELPLAVQGVSFKIHAGEKVGIVGRTGAGKSSLASGLLRLQEAAEGGIWIDGVPIAHVGLHTLRSRISIIPQDPILFPGSLRMNLDLLQEHSDEAIWAALETVQLKALVASLPGQLQYKCADRGEDLSVGQKQLLCLARALLRKTQILILDEATAAVDPGTELQMQAMLGSWFAQCTVLLIAHRLRSVMDCARVLVMDKGQVAESGSPAQLLAQKGLFYRLAQESGLV
- Km [1]: 0.6 µM
- Km [2]: 282 µM

Reference: ChEMBL document CHEMBL2074244, “Loss of ATP-dependent transport activity in pseudoxanthoma elasticum-associated mutants of human ABCC6 (MRP6)” (J Biol Chem, 2002)
